{"source": "patent US20080131510", "key": {"[1]": {"test_system": "Lys*-Ala-Gly-Leu-Leu-Cys (SEQ ID NO:32)"}, "[2]": {"test_system": "Lys*-Gly-Leu-Cys (SEQ ID NO:33)"}, "[3]": {"test_system": "Lys*-Pro-Ala-Gly-Leu-Leu-Gly-Cys (SEQ ID NO:2), pendant in PEG(8000)DA hydrogel and complexed with Pt"}, "[4]": {"test_system": "Lys*-Pro-Ala-Gly-Leu-Leu-Gly-Cys (SEQ ID NO:2)"}, "[5]": {"test_system": "Lys*-Ala-Gly-Leu-Leu-Cys (SEQ ID NO:32)", "assay": "peptide cleavage kinetics by HPLC, 10 nM activated MMP; the filing calls Km 'affinity or binding strength'"}, "[6]": {"test_system": "Lys*-Gly-Leu-Cys (SEQ ID NO:33)", "assay": "peptide cleavage kinetics by HPLC, 10 nM activated MMP; the filing calls Km 'affinity or binding strength'"}, "[7]": {"test_system": "Lys*-Pro-Ala-Gly-Leu-Leu-Gly-Cys (SEQ ID NO:2)", "assay": "peptide cleavage kinetics by HPLC, 10 nM activated MMP; the filing calls Km 'affinity or binding strength'"}}}
{"substance": "matrix metalloprotease-9 (MMP-9), activated", "values": [{"measurement": "Kcat/Km", "setting": "[1]", "result": 252, "unit": "M⁻¹ s⁻¹"}, {"measurement": "Vmax", "setting": "[1]", "result": "9.9e-10", "unit": "M/s"}, {"measurement": "kcat", "setting": "[1]", "result": 0.04, "unit": "s⁻¹"}, {"measurement": "Kcat/Km", "setting": "[2]", "result": 358, "unit": "M⁻¹ s⁻¹"}, {"measurement": "Vmax", "setting": "[2]", "result": "5.3e-09", "unit": "M/s"}, {"measurement": "kcat", "setting": "[2]", "result": 0.21, "unit": "s⁻¹"}, {"measurement": "release of cleaved fragment from the PEG(8000)DA hydrogels", "setting": "[3]", "result": "the addition of MMP-2 and MMP-9 showed a significantly higher release of cleaved fragment from the PEG(8000)DA hydrogels compared to the control"}, {"measurement": "Kcat/Km", "setting": "[4]", "result": 24000, "unit": "M⁻¹ s⁻¹"}, {"measurement": "Vmax", "setting": "[4]", "result": "2.4e-07", "unit": "M/s"}, {"measurement": "kcat", "setting": "[4]", "result": 9.6, "unit": "s⁻¹"}, {"measurement": "Km", "setting": "[5]", "result": 160, "unit": "µM"}, {"measurement": "Km", "setting": "[6]", "result": 600, "unit": "µM"}, {"measurement": "Km", "setting": "[7]", "result": 400, "unit": "µM"}]}
